Reference: publication PMC2821926, “Carboxy Terminal Tail of Polycystin-1 Regulates Localization of TSC2 to Repress mTOR” (PLoS ONE, 2010)

Target: T1, GST-14-3-3β (UniProt P31946 1-246)
T1 construct: 14-3-3 beta; also called 14-3-3 proteins; source: E. coli DH5α (pGEX), batch-purified on glutathione Sepharose 4B beads
T1 sequence (looked up): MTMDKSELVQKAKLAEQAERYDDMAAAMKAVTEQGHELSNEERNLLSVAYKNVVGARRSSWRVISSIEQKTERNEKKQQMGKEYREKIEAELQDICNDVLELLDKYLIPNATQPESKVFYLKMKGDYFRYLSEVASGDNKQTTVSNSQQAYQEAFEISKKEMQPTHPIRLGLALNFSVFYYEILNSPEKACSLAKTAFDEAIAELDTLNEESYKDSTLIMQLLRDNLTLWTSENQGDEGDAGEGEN
Assay: pull-down; 10 µg GST-14-3-3β on glutathione Sepharose 4B beads mixed with 300 µg protein of lysates of HEK-293 cells expressing CD44-CP1 or Flag-CP1, overnight at 4°C; washed thrice in PBS; immunoblot with anti-TSC2
Conditions: one partner purified

B1: tuberous sclerosis complex 2 (TSC2) tumor suppressor (natural protein)
chain: not shown
notes: TSC2 (tuberin), endogenous in HEK-293 cells; also called tuberin; source: endogenous, HEK-293 lysate
  fold enhanced binding in Flag-CP1 expressing cells relative to cells expressing CD44-CP1: ~2 fold
